What was measured:
Assay type in all cases: cell-based, human
CD34+ fibrocytes = test: MHC II, CD80, CD86, PD-L1 expression in cultured fibrocytes (RT-qPCR, flow cytometry); conditions: rhSlit2 50 ng/ml, 5 to 7 d
Source text: Fibrocyte and T cell isolation and cultivation. Peripheral blood mononuclear cells (PBMCs) were obtained from the venous circulation of clinic patients with GD, TAO or from healthy donors after obtaining informed consent. PBMCs were also obtained from Red Cross donor plasmapheresis filters. They were isolated by Ficoll-Histopaque (Sigma-Aldrich, St. Louis, MO) density gradient centrifugation. Fibrocytes were cultivated as described (Bucala, R, et al., (1994) Mol Med 1, 71-81, incorporated herein by reference in its entirety) except that culture substrata remained uncoated with fibronectin, as previously described (Douglas, R. S., et al. (2010) The Journal of clinical endocrinology and metabolism 95, 430-438). Isolated PBMCs (1×10^6-1×107) were inoculated in six-well plates covered with DMEM containing 10% FBS and incubated in 10-14 days. Adherent monolayers (<5% of the starting population) were washed with PBS and detached using accutase (Millipore) treatment, or mechanical scraping following accutase treatment. Culture purity was routinely confirmed by FACS analysis to be >90% fibrocytes by confirming the CD31^−CD45^+CD34^+CXCR4^+Col I^+TSFR^high phenotype.
Invariably, a small population of tightly adherent T cells were found in the fibrocyte cultures, consistent with the previous findings. Culture viability was routinely verified to be >90%. CD4^+ T cells were enriched using the CD4 isolation cocktail (Cat #0.130-096-533, Miltenyi Biotec, San Diego, CA) followed by negative selection using a magnetic column (Cat #0.130-042-401) according to manufacturer's protocol. Fibrocytes and isolated T cells were cultured and remained untreated or were incubated with human IgG isotype control (5 μg/ml) or teprotumumab (50 μg/mL) for 7 to 9 days. Single cell suspensions were stained with anti-human CD4, CD3, CD34, MHC-2, CD80, CD86, and PD-L1 (BD Biosciences) for 30 min, rinsed and fixed with CytoPerm/CytoFix (BD). They were then stained with anti-human INFγ and IL-17A for 20 min, rinsed, and subjected to the flow cytometry analysis. Gated CD34^+CXCR4^+ fibrocytes and CD4^+CD3^+ T cells were analyzed using quadrant settings based on negative isotype staining.
In vitro studies of CD34^+ fibrocytes and T cells PBMC and GD-OF monolayers were treated in vitro with human IgG isotype control (5 μg/ml), teprotumumab (50 μg/mL), H7 (5 μg/mL), linsitinib (1 μM), bTSH (5 mIU/mL), M22 (1 μg/mL), or IGF-1 (10 nM) for the intervals indicted in the figure legends in a 37° C., 5% CO2, humidified incubator until confluent. Brefeldin A (0.66 μl/ml), (Golgi Stop™, BD Biosciences), phorbol 12-myristate 13-acetate (PMA) (50 ng/ml) and ionomycin (1 μg/mL) were added for 5 h. Cells were rinsed with flow cytometry buffer (1×PBS, 0.5% BSA, 0.1% sodium azide) and stained with the relevant monoclonal antibodies.
(§1) Real-time PCR Confluent fibrocyte and GD-OF cultures were incubated with bTSH (5 mIU/mL), teprotumumab (50 μg/mL) or linsitinib (1 μM) for the time intervals indicated, washed with PBS and RNA was extracted with the Aurum Total RNA Mini Kit (cat. #732-6820, Bio-Rad, Hercules, CA). Cellular RNA (2 μg) was reverse transcribed using QuantiTect Reverse Transcription kit (cat. #205314, Qiagen (Germantown, MD) and real-time PCR was performed using an Applied Biosystems instrument with QuantiTect SYBR Green PCR kit (cat. no. 204143; Qiagen, Frederick, MD). Primer sequences were as follows.

fibrocytes = test: IL-10, icIL-1RA, sIL-1RA expression (PCR, ELISA)
Method: FIGS. 11A-11F are graphs showing teprotumumab attenuates bTSH induced IL-10 while enhancing icIL-1RA and sIL-1RA expression in fibrocytes and GD-OF. Fibrocyte cultures were treated with teprotumumab (50 μg/ml), rhSlit2 (50 ng/ml) or human Isotype IgG for 7-9 d, with bTSH (5 mIU/mL) for final 6 h. RNA was extracted and reverse transcribed. Isolated cDNA was subjected to quantitative real-time PCR for IL-10 (FIGS. 11A and 11B), icIL-1RA (FIGS. 11C and 11D). Media and cellular proteins were collected and subjected to specific ELISAs for icIL-1RA and sIL-1RA (FIGS. 11E, 11F, 11G, and 11H). PCR values were normalized to their respective GAPDH levels. icIL-1RA and sIL-1RA protein levels were normalized to cellular protein levels. Data are expressed as the mean±SD of three independent determinations. Experiments were repeated three times. **, p<0.01; ***. P<0.001.
IL-12, IL-23, IL-10, HA and BAFF ELISAs. Confluent cultures were treated with nothing or teprotumumab (50 μg/mL) for 5 d, without or with bTSH (5 mU/mL) for the intervals indicated or 72 h. Media and rinsed cell layers were homogenized in 0.1M NaCl and assayed for HA content using an ELISA kit (K-1200) from Echelon Biosciences Inc. (Salt Lake City, UT) according to manufacturer's instructions. A BAFF specific ELISA, purchased from R & D systems, was used in accordance with the manufacturer's instructions.
as §1

fibrocytes and GD-OF = test: BAFF expression and induction by bTSH; conditions: teprotumumab 50 μg/ml or rhSlit2 50 ng/ml
Method: FIGS. 12A-12F are graphs showing the effect of bTSH, teprotumumab, and Slit2 on B-cell activating factor (BAFF) expression in fibrocytes and GD-OF. In FIGS. 12A and 12B, cultures were treated for the graded intervals indicated along the abscissas with bTSH (5 mIU/mL). Cellular RNA was harvested and subjected to reverse transcription by RT-PCR (FIG. 12A). Values were normalized to their respective GAPDH levels Medium was assayed for BAFF levels with an ELISA (FIG. 12B). Values were normalized to respective monolayer protein content. Data are expressed as mean f SD of triplicate determinations; *, p<0.05; **, p<0.01; ***, p<0.001. In FIGS. 12C-12F, bTSH, teprotumumab (50 μg/ml) or recombinant human Slit2 (rhSlit2) (50 ng/ml) were added to culture media for the times indicated and analyzed for BAFF mRNA levels as in FIG. 12A. In FIGS. 12F, parental GD-OF strains were sorted into pure CD34^+ and CD34^− subsets. Subsets were then cultured for 48 h, the final 6 h in the absence or presence of bTSH. Data were expressed as mean f SD of triplicate independent determinations from a single experiment representative of three conducted. *, p<0.05; **, p<0.01
IL-12, IL-23, IL-10, HA and BAFF ELISAs. Confluent cultures were treated with nothing or teprotumumab (50 μg/mL) for 5 d, without or with bTSH (5 mU/mL) for the intervals indicated or 72 h. […]

[1] = teprotumumab 50 μg/ml or rhSlit2 50 ng/ml, 7-9 d

B1: rhSlit2: recombinant human Slit2, a neural axon repellent generated by CD34− OF (protein, UniProt O94813 31-1529, looked up)
Slit homolog 2 protein: QCSCSGSTVDCHGLALRSVPRNIPRNTERLDLNGNNITRITKTDFAGLRHLRVLQLMENKISTIERGAFQDLKELERLRLNRNHLQLFPELLFLGTAKLYRLDLSENQIQAIPRKAFRGAVDIKNLQLDYNQISCIEDGAFRALRDLEVLTLNNNNITRLSVASFNHMPKLRTFRLHSNNLYCDCHLAWLSDWLRQRPRVGLYTQCMGPSHLRGHNVAEVQKREFVCSGHQSFMAPSCSVLHCPAACTCSNNIVDCRGKGLTEIPTNLPETITEIRLEQNTIKVIPPGAFSPYKKLRRIDLSNNQISELAPDAFQGLRSLNSLVLYGNKITELPKSLFEGLFSLQLLLLNANKINCLRVDAFQDLHNLNLLSLYDNKLQTIAKGTFSPLRAIQTMHLAQNPFICDCHLKWLADYLHTNPIETSGARCTSPRRLANKRIGQIKSKKFRCSAKEQYFIPGTEDYRSKLSGDCFADLACPEKCRCEGTTVDCSNQKLNKIPEHIPQYTAELRLNNNEFTVLEATGIFKKLPQLRKINFSNNKITDIEEGAFEGASGVNEILLTSNRLENVQHKMFKGLESLKTLMLRSNRITCVGNDSFIGLSSVRLLSLYDNQITTVAPGAFDTLHSLSTLNLLANPFNCNCYLAWLGEWLRKKRIVTGNPRCQKPYFLKEIPIQDVAIQDFTCDDGNDDNSCSPLSRCPTECTCLDTVVRCSNKGLKVLPKGIPRDVTELYLDGNQFTLVPKELSNYKHLTLIDLSNNRISTLSNQSFSNMTQLLTLILSYNRLRCIPPRTFDGLKSLRLLSLHGNDISVVPEGAFNDLSALSHLAIGANPLYCDCNMQWLSDWVKSEYKEPGIARCAGPGEMADKLLLTTPSKKFTCQGPVDVNILAKCNPCLSNPCKNDGTCNSDPVDFYRCTCPYGFKGQDCDVPIHACISNPCKHGGTCHLKEGEEDGFWCICADGFEGENCEVNVDDCEDNDCENNSTCVDGINNYTCLCPPEYTGELCEEKLDFCAQDLNPCQHDSKCILTPKGFKCDCTPGYVGEHCDIDFDDCQDNKCKNGAHCTDAVNGYTCICPEGYSGLFCEFSPPMVLPRTSPCDNFDCQNGAQCIVRINEPICQCLPGYQGEKCEKLVSVNFINKESYLQIPSAKVRPQTNITLQIATDEDSGILLYKGDKDHIAVELYRGRVRASYDTGSHPASAIYSVETINDGNFHIVELLALDQSLSLSVDGGNPKIITNLSKQSTLNFDSPLYVGGMPGKSNVASLRQAPGQNGTSFHGCIRNLYINSELQDFQKVPMQTGILPGCEPCHKKVCAHGTCQPSSQAGFTCECQEGWMGPLCDQRTNDPCLGNKCVHGTCLPINAFSYSCKCLEGHGGVLCDEEEDLFNPCQAIKCKHGKCRLSGLGQPYCECSSGYTGDSCDREISCRGERIRDYYQKQQGYAACQTTKKVSRLECRGGCAGGQCCGPLRSKRRKYSFECTDGSSFVDEVEKVVKCGCTRCVS
In the case of B1, the “MHC II and B7 expression” value (CD34+ fibrocytes) is reported as “repressing”, the “sIL-1RA expression (protein)” value (fibrocytes; ELISA, fibrocytes) is reported as “attenuated” and the “IL-10 mRNA, basal and bTSH-provoked expression” value (fibrocytes; [1]) is reported as “downregulated”. For the same molecule, the “basal and bTSH-dependent icIL-1RA and sIL-1RA mRNA levels” value (fibrocytes; [1]) was “upregulated” and the “bTSH induction of BAFF” value (fibrocytes and GD-OF) was “similar”.
